Laboratory results from patent publication US6767991.
Where no end group is shown, it is not given here. [ ]: non-standard residue; d: D form. Pro(1-NpCH2O) = Pro(4-R13), R13 = 1-NpCH2O; Pro(2-NpCH2O) = Pro(4-R13), R13 = 2-NpCH2O; P1(R14 Et, 1R,2R) = not defined here; P1(R14 Et, 1S,2S) = not defined here; Pro(4-OBn) = Pro(4-R13), R13 = OBn; Pro(O-Bn) = Pro(4-R13), R13 = O-Bn; Pro(OBn) = Pro(4-R13), R13 = OBn; Chg = N[C@H](C(=O)O)C1CCCCC1; Acca = not defined here; Nva = CCC[C@H](N)C(=O)O; Ac3c = NC1(C(=O)O)CC1

B1: Compound 236 (Table 2): Ac-Gly-thioxo-Ile-Val-Pro(1-NpCH2O)-Nva (peptide)
peptide: Ac-GIVP[Nva]
modifications: not fully specified (residue 4); also: Ile2 thioxo (L-thionoisoleucine), thioamide

These binders were tested against recombinant NS3 protease with the NS4A peptide cofactor … (molar ratio enzyme:cofactor 1:100) (hepatitis C virus genotype 1b) (assay: cell-based or functional assay).
Binder Ac-D[dE]IV[Pro(OBn)][(1R,2R)‑1‑amino‑2‑ethylcyclopropanecarboxylic acid] [Compound 517 (Table 5): Ac-Asp-D-Glu-Ile-Val-Pro(OBn)-P1(R14 Et; 1R, 2R)] has an IC50 of 75 nM.
D[dE]IV[Pro(O-Bn)][1‑amino‑2‑vinylcyclopropanecarboxylic acid] (not fully specified; also: further groups not given here) [Compound 636 (Table 6): P6 Asp, P5 D-Glu, P4 Ile, P3 Val, R13 O-Bn, R14 vinyl] was tested, and the IC50 was 470 nM.
For Ac-D[dE]IV[Pro(OBn)][(1S,2S)‑1‑amino‑2‑ethylcyclopropanecarboxylic acid]-{NH‑(S)‑CHMePh} [Compound 1001 (Table 10): Ac-Asp-D-Glu-Ile-Val-Pro(OBn)-P1(R14 Et; 1S, 2S)-NH-(S)-CHMePh], the IC50 was 2000 nM.
Ac-D[dE]IV[Pro(OBn)][(1S,2S)‑1‑amino‑2‑ethylcyclopropanecarboxylic acid]-{NH‑(R)‑CHMePh} [Compound 1002 (Table 10): Ac-Asp-D-Glu-Ile-Val-Pro(OBn)-P1(R14 Et; 1S, 2S)-NH-(R)-CHMePh] showed an IC50 of 49000 nM.
For Ac-D[dE]IVP[Nva] [Compound 128 (Table 1): Ac-Asp-D-Glu-Ile-Val-Pro-Nva], the IC50 was 7400 nM.
Ac-D[dE][Chg]EE[Acca] (reading uncertain) [Compound 132 (Table 1): Ac-Asp-D-Glu-Chg-Glu-Glu-Acca] showed an IC50 of 36000 nM.
Ac-D[dV]IV[Pro(O-Bn)][Nva] [Compound 202 (Table 2): Ac-Asp-D-Val-Ile-Val-Pro(O-Bn)-Nva] showed an IC50 of 930 nM.
For Ac-D[dE][Chg]V[Pro(O-Bn)][Nva] [Compound 211 (Table 2): Ac-Asp-D-Glu-Chg-Val-Pro(O-Bn)-Nva], the IC50 was 120 nM.
Ac-D[dE]IV[Pro(2-NpCH2O)][Nva] [Compound 213 (Table 2): Ac-Asp-D-Glu-Ile-Val-Pro(2-NpCH2O)-Nva] gave an IC50 of 36 nM.
Work on Ac-D[dE][Chg]V[Pro(1-NpCH2O)][Acca] (reading uncertain) [Compound 215 (Table 2): Ac-Asp-D-Glu-Chg-Val-Pro(1-NpCH2O)-Acca] yielded an IC50 of 14 nM.
Ac-D[dE]IV[Pro(4-OBn)][Nva] [Compound 218 (Table 2): Ac-Asp-D-Glu-Ile-Val-Pro(O-Bn)-Nva] gave an IC50 of 490 nM.
B1 gave an IC50 of 4000 nM.

Molecular target: recombinant NS3 protease with the NS4A peptide cofactor … (molar ratio enzyme:cofactor 1:100) (hepatitis C virus genotype 1b)
Experiment: cell-based or functional assay
Remark: another data set of the same source
Work on Ac-[Chg]VP[Ac3c] (not fully specified (residue 3); printed as Ac-Chg-Val-Pro(R13)-Acca) [Compound 257 (Table 2): Ac-Chg-Val-Pro(R13)-Acca, R13 drawn] yielded an IC50 of 2200 nM.
In the case of Ac-[Chg][Chg]P[P1(R14 Et, 1S,2S)] (not fully specified (residue 3); reading uncertain) [Compound 506 (Table 5): Ac-Chg-Chg-Pro(1-NpCH2O)-P1(R14 Et; 1S, 2S)], the IC50 is reported as 4850 nM.
Ac-[Chg]VP[P1(R14 Et, 1R,2R)] (not fully specified (residue 3); reading uncertain) [Compound 513 (Table 5): Ac-Chg-Val-Pro(1-NpCH2O)-P1(R14 Et; 1R, 2R)] showed an IC50 of 1660 nM and a fold potency against the corresponding 1S,2S isomer (compound 514) of 25 fold.
Ac-[Chg]VP[Ac3c] (not fully specified (residue 3); printed as Ac-Chg-Val-Pro(1-NpCH2O)-Acca) [Compound 227 (Table 2): Ac-Chg-Val-Pro(1-NpCH2O)-Acca] was tested, and the IC50 was 3000 nM.
Binder Ac-[Chg]VPX (not fully specified (residue 3); printed as Ac-Chg-Val-Pro(O-Bn)-P1) [Compound 228 (Table 2): Ac-Chg-Val-Pro(O-Bn)-P1, P1 drawn] has an IC50 of 35000 nM.
